# Patent US20080124811A1 (AbbVie / Abbott, published 2008)
# B1: H2 288 (scFv)
# scFv (VH-linker-VL with V5 and 6His tags), displayed on yeast: QLVQSGPELRKPGETVKISCKGSGYTFTHYGINWVKQTPRKDLKWMGWINTHTGEAYYADDFKGRFAFSLETSANTAYLQINNLNNGDMGTYFCTRSHRFGLDYWGQGTSVTVSSGPAKELTPLKEAKVSDNVLTQSPPSLAVSLGQRATISCKASQSVDYNGDSYLNWYQQKPGQPPKFLIYAASNLESGIPARFSGSGSGTDFNLNIHPVEEEDAATYYCQQSNEDPFTFGSGTKLEIKRAAALESRGPFEGKPIPNPLLGLDSTRTGHHHHHH
# notes: member of group m4
# B2: 3-631-436 scFv, unmutated, on yeast (scFv)
# scFv: QVQLQQPGAELVRPGASVKLSCKASGYTFTSYWMNWVKQRPEQGLEWIGRIDPYDSETHYNQKFKDKAILTVDKSSSTAFVQLTSLTSEDSAVYYCVSDGYWGAGTTVTVSSGPAKELTPLKEAKVSDVVMTQTPLTLSVTTGQPASISCKSSQSLLDSDGKTYLNWLFQRPGESPKLLIYVVSKLESGVPDRFTGSGSGTDFTLKISRVEAEDLGVYYCLQATHFPWTFGGGTKLEIKRAAALESRGPFEGKPIPNPLLGLDSTRTGHHHHHH
# B3: monoclonal antibody 3-631-436 (wild-type mouse mAb from hybridoma cell line 3-631-436, A.T.C.C. PTA-6476) (antibody, V domains shown)
# VH: QVQLQQPGAELVRPGASVKLSCKASGYTFTSYWMNWVKQRPEQGLEWIGRIDPYDSETHYNQKFKDKAILTVDKSSSTAFVQLTSLTSEDSAVYYCVSDGYWGAGTTVTVSS
# VL: DVVMTQTPLTLSVTTGQPASISCKSSQSLLDSDGKTYLNWLFQRPGESPKLLIYVVSKLESGVPDRFTGSGSGTDFTLKISRVEAEDLGVYYCLQATHFPWTFGGGTKLEIK
# modifications: In the sandwich assays the antibody was coupled to particles, biotinylated or acridinium-labelled; the letters do not carry this.
# notes: the whole entry is named for each chain and must be cut at the linker; Coated on particles, biotinylated or acridinium-conjugated in the sandwich assays
# Tests used:
# [1] = molecular target: T1, human brain natriuretic peptide, cyclic BNP (1-32c) (human, cyclic: ring closed by a disulfide bond between the two cysteine residues; biotinylated or acridinium-labelled in some assays); assay: off-rate assay on yeast-displayed scFv by flow cytometry: biotinylated cyclic BNP (1-32c), chase with unlabelled BNP 1-32c, SA:PE, first order decay fit
# T1 construct: also called hBNP; hBNP 1-32
# [2] = molecular target: T1, human brain natriuretic peptide, cyclic …; assay: off-rate assay on yeast-displayed scFv; improvement of koff over 106.3 wt
# [3] = molecular target: T1, human brain natriuretic peptide, cyclic …; assay: yeast display off-rate assay, flow cytometry, biotinylated cyclic BNP chased with unlabelled BNP, first order decay fit
# [4] = molecular target: T1, human brain natriuretic peptide, cyclic …; assay: scFv on yeast; method not described; printed unit µM read as pM (26 pM is said to be 10-fold lower)
# [5] = molecular target: T1, human brain natriuretic peptide, cyclic …; assay: yeast display off-rate assay, flow cytometry; t1/2 = ln 2/koff
# [6] = molecular target: T1, human brain natriuretic peptide, cyclic …; assay: off-rate assay on yeast-displayed scFv by flow cytometry: biotinylated cyclic BNP (1-32c), chase with unlabelled BNP 1-32c, SA:PE; m2 of the first order decay fit (error 0.00087362, R 0.98912), time axis in sec
# [7] = molecular target: T1, human brain natriuretic peptide, cyclic …; assay: off-rate assay on yeast-displayed scFv by flow cytometry: biotinylated cyclic BNP (1-32c), chase with unlabelled BNP 1-32c, SA:PE, first order decay fit; remark: listed apart in the source
# [8] = molecular target: T1, human brain natriuretic peptide, cyclic …; assay: KinExA, solution phase
# [9] = molecular target: T1, human brain natriuretic peptide, cyclic …; assay: … sandwich CMIA; capture 3-631-436 on microparticles, detection 106.3AM1-acridinium; second particle type
# [10] = molecular target: T1, human brain natriuretic peptide, cyclic …; assay: Biacore SPR, antibody captured on goat anti-mouse Fc, BNP injected, 1:1 Langmuir fit
# [11] = molecular target: T1, human brain natriuretic peptide, cyclic …; assay: … sandwich CMIA; capture 3631436 ms on microparticles, detection 106.3AM2-acridinium
# [12] = molecular target: T1, human brain natriuretic peptide, cyclic …; assay: BIAcore SPR, antibody captured on goat anti-mouse Fc, BNP in solution, 25 C
# [13] = molecular target: T1, human brain natriuretic peptide, cyclic …; assay: … sandwich CMIA; capture 3-631-436 on microparticles, detection 106.3AM1-acridinium
binder,measurement,setting,value
B1,koff,[1],3.7e-05 s⁻¹
same,Fold Improvement,[2],2.3 fold
B2,koff,[3],0.0047 s⁻¹
same,Kd,[4],~0.26 nM
same,half-life (t1/2),[5],2.4 min
same,koff,[6],0.00474 s⁻¹
same,koff,[7],0.0048 s⁻¹
B3,Kd,[8],0.286 nM
same,Ratio B/A (RLU at 30 pg/mL over 0 pg/mL),[9],2.4
same,Ratio C/A (RLU at 300 pg/mL over 0 pg/mL),[9],23.9
same,Ratio D/A (RLU at 1000 pg/mL over 0 pg/mL),[9],145
same,Ratio E/A (RLU at 2000 pg/mL over 0 pg/mL),[9],409
same,Kd,[10],0.375 nM
same,Ratio B/A (RLU at 30 pg/mL over 0 pg/mL),[11],2.7
same,Ratio C/A (RLU at 300 pg/mL over 0 pg/mL),[11],14.3
same,Ratio D/A (RLU at 1000 pg/mL over 0 pg/mL),[11],32.4
same,Ratio E/A (RLU at 2000 pg/mL over 0 pg/mL),[11],198
same,Ratio F/A (RLU at 5000 pg/mL over 0 pg/mL),[11],595
same,Kd,[12],0.38 nM
same,koff,[12],0.0025 s⁻¹
same,kon,[12],6.7e+06 M⁻¹ s⁻¹
same,Ratio B/A (RLU at 30 pg/mL over 0 pg/mL),[13],1.9
same,Ratio C/A (RLU at 300 pg/mL over 0 pg/mL),[13],27.8
same,Ratio D/A (RLU at 1000 pg/mL over 0 pg/mL),[13],196
same,Ratio E/A (RLU at 2000 pg/mL over 0 pg/mL),[13],471
